Laboratory results from the supplement of paper PMC10567573.

B1: TMEM175 (parent)
chain: ALLHQAETLQPSVWFGGREHVLMF

Variants of: B1
Experiment: protein stability index of a GFP-peptide fusion (GPS, HEK-293T) (PSI 1-6); higher = more stable
Conditions: c terminus: a fixed tail appended
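Also: lentivirally expressed fusions sorted by FACS into six bins by GFP to DsRed ratio, PSI derived from sequencing read proportions per bin multiplied by bin number.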

Variant | protein stability index
ALLHQAETLQPSEWFGGREHVLMF [V13E] | 1.86
ALLHQAETLQPSIWFGGREHVLMF [V13I] | 2.25
ALLHQAETLQPSLWFGGREHVLMF [V13L] | 2.59
ALLHQAETLQPSHWFGGREHVLMF [V13H] | 2.22
ALLHQAETLQPSVWFGGREHVKMF [L22K] | 1.94
ALLHQAETLQPSVWFGGREHVFMF [L22F] | 2.44
ALLHQAETLQPSVWFGGREHVAMF [L22A] | 1.1
ALLHQAETLQPSVWFGGREHVHMF [L22H] | 2.68
ALLHQAETLQPSVWFGGREHVMMF [L22M] | 2.03
ALLHQAETLQPSVWFGGREHVTMF [L22T] | 1.78
AILHQAETLQPSVWFGGREHVLMF [L2I] | 3.26
AVLHQAETLQPSVWFGGREHVLMF [L2V] | 1.3
AMLHQAETLQPSVWFGGREHVLMF [L2M] | 1.93
ANLHQAETLQPSVWFGGREHVLMF [L2N] | 1.06
ACLHQAETLQPSVWFGGREHVLMF [L2C] | 3.82
ALLHQAETLQRSVWFGGREHVLMF [P11R] | 4.75
ALLHQAETLQKSVWFGGREHVLMF [P11K] | 2.59
ALLHQAETLQPHVWFGGREHVLMF [S12H] | 1.15
ALLHQAETLSPSVWFGGREHVLMF [Q10S] | 2.2
ALLHQAETLQPSVWFTGREHVLMF [G16T] | 1.47
ALLHQAETLQPSVWFCGREHVLMF [G16C] | 2.98
ALLHQAETLQPSVWFKGREHVLMF [G16K] | 2.17
ALLHQAETLQPSVWFGGRSHVLMF [E19S] | 2.2
KLLHQAETLQPSVWFGGREHVLMF [A1K] | 2.35

Variant | protein stability index
ILLHQAETLQPSVWFGGREHVLMF [A1I] | 3.59
DLLHQAETLQPSVWFGGREHVLMF [A1D] | 1.48
ALLHQAKTLQPSVWFGGREHVLMF [E7K] | 3.58
ALLHQHETLQPSVWFGGREHVLMF [A6H] | 2.17
ALLHQSETLQPSVWFGGREHVLMF [A6S] | 1.68
ALLHQKETLQPSVWFGGREHVLMF [A6K] | 1.68
ALLHQTETLQPSVWFGGREHVLMF [A6T] | 1.83
ALLHQAETLQPSVWTGGREHVLMF [F15T] | 1.85
ALLHQAETLQPSVWMGGREHVLMF [F15M] | 1.82
ALLHQAETLQPSVWGGGREHVLMF [F15G] | 2.22
ALLHQAETLQPSVWFGGREEVLMF [H20E] | 1.6
ALLHQAETLQPSVWFGGREIVLMF [H20I] | 2.97
ALLHRAETLQPSVWFGGREHVLMF [Q5R] | 2.33
ALLHHAETLQPSVWFGGREHVLMF [Q5H] | 2.37
ALLHQAETLQPSVHFGGREHVLMF [W14H] | 2.31
ALLHQAETLQPSVVFGGREHVLMF [W14V] | 1.91
ALLHQAETLQPSVWFGGSEHVLMF [R18S] | 1.15
ALLHQAETLQPSVWFGGEEHVLMF [R18E] | 1.76
ALLHQAETLQPSVWFGGIEHVLMF [R18I] | 3.13
ALLHQAETLQPSVWFGGDEHVLMF [R18D] | 1.93
ALLHQAETLQPSVWFGGREHVLMP [F24P] | 1.54
ALLHQAETLQPSVWFGGREHVLMQ [F24Q] | 2.4
ALLHQAETLQPSVWFGGREHVLML [F24L] | 2.21
